Changes are numbered by the printed parent chain.
B1: mouse anti-GPC3 GC33 scFv (VL-VH) (scFv)
scFv: DVVMTQTPLSLPVSLGDQASISCRSSQSLVHSNGNTYLHWYLQKPGQSPKLLIYKVSNRFSGVPDRFSGSGSGTDFTLKISRVEAEDLGVYFCSQNTHVPPTFGSGTKLEIKGGGGSGGGGSGGGGSQVQLQQSGAELVRPGASVKLSCKASGYTFTDYEMHWVKQTPVHGLKWIGALDPKTGDTAYSQKFKGKATLTADKSSSTAYMELRSLTSEDSAVYYCTRFYSYTYWGQGTLVTVSA
notes: also called mouse scFv; not shown: C-terminal Fc tag (human Fc, used only for capture on the anti-human Fc chip) and any junction to it
B2: VL1.M2-VH2.M6 humanized scFv (scFv, not shown: a dimerising Fc or GST)
scFv: DIVMTQTPLSLSVTPGQPASISCRSSQSLVHSNGNTYLHWYLQKPGQSPQLLIYKVSSRFSGVPDRFSGSGSGTDFTLKISRVEAEDVGVYYCSQNTHVPPTFGQGTKVEIKGGGGSGGGGSGGGGSQVQLVQSGAEVKKPGASVKVSCKASGYTFTSYEMHWVRQAPGQGLEWMGALDPKTGDTAYSQKFQGRVTLTADTSTSTVYMELSSLRSEDTAVYYCTRFYSYTYWGQGTLVTVSS
notes: Crude scFv with Fc tag from HEK293 supernatant
B3: VL1-VH2 humanized scFv (scFv, not shown: a dimerising Fc or GST)
scFv: B2 scFv with S58N, S158D, Q192K
notes: as for B2
B4: VL1-VH2.M1 humanized scFv (scFv, not shown: a dimerising Fc or GST)
scFv: B2 scFv with S58N, Q192K
notes: as for B2
B5: VL1.M2-VH2.M1 humanized scFv (scFv, not shown: a dimerising Fc or GST)
scFv: B2 scFv with Q192K
notes: as for B2
B6: VL1.M2-VH2 humanized scFv (scFv, not shown: a dimerising Fc or GST)
scFv: B2 scFv with S158D, Q192K
notes: as for B2
B7: VL1.M2-VH2.M5 humanized scFv (scFv, not shown: a dimerising Fc or GST)
scFv: B2 scFv with S158D
notes: as for B2
B8: VL1-VH2.M5 humanized scFv (scFv, not shown: a dimerising Fc or GST)
scFv: B2 scFv with S58N, S158D
notes: as for B2
B9: VL1-VH2.M6 humanized scFv (scFv, not shown: a dimerising Fc or GST)
scFv: B2 scFv with S58N
notes: as for B2
B10: VL1.M2-VH2.M10 humanized scFv (scFv, not shown: a dimerising Fc or GST)
scFv: B2 scFv with K181S, T182G
B11: VL1.M8-VH2.M6 humanized scFv (scFv, not shown: a dimerising Fc or GST)
scFv: B2 scFv with V99W
B12: VL1.M7-VH2.M6 humanized scFv (scFv, not shown: a dimerising Fc or GST)
scFv: B2 scFv with N96G
B13: VL1.M2-VH2.M8 humanized scFv (scFv, not shown: a dimerising Fc or GST)
scFv: B2 scFv with K181S
B14: VL1.M3-VH2.M6 humanized scFv (scFv, not shown: a dimerising Fc or GST)
scFv: B2 scFv with N35K
B15: VL1.M2-VH2.M9 humanized scFv (scFv, not shown: a dimerising Fc or GST)
scFv: B2 scFv with T182G
B16: VL1.M6-VH2.M6 humanized scFv (scFv, not shown: a dimerising Fc or GST)
scFv: B2 scFv with S94M
B17: VL1.M2-VH2.M11 humanized scFv (scFv, not shown: a dimerising Fc or GST)
scFv: B2 scFv with D184S

Each binder was assayed against T1, GPC3 (UniProt P51654 25-559, limits assumed) (assay: SPR (Biacore T200); scFv-Fc captured by anti-human Fc pAb, GPC3 10-320 nM in flow).
T1 construct: also called antigen GPC3; Glypican 3
T1 sequence (P51654 25-559 limits assumed): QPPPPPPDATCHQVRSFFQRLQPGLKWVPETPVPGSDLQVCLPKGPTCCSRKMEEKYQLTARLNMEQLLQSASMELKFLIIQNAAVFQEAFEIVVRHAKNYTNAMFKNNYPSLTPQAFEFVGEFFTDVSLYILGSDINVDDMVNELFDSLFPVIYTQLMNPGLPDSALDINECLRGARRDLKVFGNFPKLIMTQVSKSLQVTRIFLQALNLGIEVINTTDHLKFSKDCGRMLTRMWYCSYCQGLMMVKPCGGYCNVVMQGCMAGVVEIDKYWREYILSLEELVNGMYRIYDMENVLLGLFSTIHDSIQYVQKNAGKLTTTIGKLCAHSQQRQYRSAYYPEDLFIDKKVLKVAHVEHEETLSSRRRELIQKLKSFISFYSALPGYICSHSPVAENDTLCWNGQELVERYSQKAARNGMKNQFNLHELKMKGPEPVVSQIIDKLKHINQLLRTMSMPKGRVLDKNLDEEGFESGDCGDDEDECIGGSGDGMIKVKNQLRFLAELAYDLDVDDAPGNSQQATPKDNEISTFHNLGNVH
Source text: (§1) The humanized VLs (VL1 and VL1.M2) were connected to humanized VHs (VH2, VH2.M1, VH2.M5 and VH2.M6) with a (G4S)₃ linker (SEQ ID NO: 10) to construct humanized scFvs. These scFvs were expressed with a C-terminal Fc tag in HEK293 cells. The crude scFv proteins secreted to the cell culture supernatant were used for binding affinity determination using surface plasmon resonance (SPR) on a Biacore T200 machine. Briefly, the scFv protein was captured on the sensor chip pre-coated with goat-anti-human Fc polyclonal antibody (pAb) (Jackson ImmunoResearch, cat #109-005-098) via the interaction between pAb and the Fc tag, then the antigen GPC3 concentration ranging from 10 nM to 320 nM flowed through the sensor chip. After 100 s of association, running buffer (10 mM HEPES, 150 mM NaCl, 3 mM EDTA, 0.005% Tween-20, pH 7.4) flowed through the sensor chip to allow the scFv-GPC3 complex to dissociation. The sensor chip was regenerated using 50 mM HCl between cycles.
Work on B1 yielded a Kd of 1.8 nM, a koff of 0.00023 s⁻¹ and a kon of 130000 M⁻¹ s⁻¹.
Binder B2 has a Kd of 2.7 nM, a koff of 0.0005 s⁻¹ and a kon of 190000 M⁻¹ s⁻¹.
With B3 the Kd was 1.7 nM, the koff was 0.00029 s⁻¹ and the kon was 170000 M⁻¹ s⁻¹.
For B4, the Kd was 1.9 nM, the koff was 0.00036 s⁻¹ and the kon was 190000 M⁻¹ s⁻¹.
B5 showed a Kd of 3 nM, a koff of 0.00051 s⁻¹ and a kon of 170000 M⁻¹ s⁻¹.
Work on B6 yielded a Kd of 2.2 nM, a koff of 0.00035 s⁻¹ and a kon of 160000 M⁻¹ s⁻¹.
B7 was tested, and the Kd was 2.1 nM, the koff was 0.00037 s⁻¹ and the kon was 170000 M⁻¹ s⁻¹.
B8 was tested, and the Kd was 1.6 nM, the koff was 0.00027 s⁻¹ and the kon was 170000 M⁻¹ s⁻¹.
B9 gave a Kd of 2 nM, a koff of 0.00037 s⁻¹ and a kon of 190000 M⁻¹ s⁻¹.

Each binder was assayed against T1, GPC3 (assay: SPR as in Example 1 (Biacore T200; scFv-Fc captured, GPC3 in flow)).
Source text: as §1
To further improve the humanization of anti-GPC3 scFvs, additional amino acid residues in VH1 and VL1 were mutated to their human germline counterparts. In HCDR2 of VH2.M6, mutations K54S, T55G or both were introduced, yielding VH2.M8 (SEQ ID NO: 11), VH2.M9 (SEQ ID NO: 12) and VH2.M10 (SEQ ID NO: 13) sequences, respectively. Mutation D57S was introduced to VH2.M6, yielding VH2.M11 sequence (SEQ ID NO: 14). All three additional mutations was introduced to VH2.M6, yielding VH2.M12 sequence (SEQ ID NO: 15). Similarly for VL1.M2, an additional N35K mutation was introduced to LCDR1, yielding VL1.M3 (SEQ ID NO: 16). Additional S94M, N96G and V99W mutations were introduced to LCDR3 of VL1.M2 individually, yielding VL1.M6 (SEQ ID NO: 17), VL1.M7 (SEQ ID NO: 18) and VL1.M8 (SEQ ID NO: 19) sequences, respectively. Additional S94M mutations was introduced to LCDR3 of VL1, yielding VL1.M9 (SEQ ID NO: 137) sequence. The binding affinity of these humanized variants were again determined using SPR as described in Example 1 (Table 5).
For B1, the Kd was 4 nM, the koff was 0.00021 s⁻¹ and the kon was 51000 M⁻¹ s⁻¹.
B2 was tested, and the Kd was 6.8 nM, the koff was 0.00048 s⁻¹ and the kon was 70000 M⁻¹ s⁻¹.
B10 was tested, and the Kd was 6.8 nM, the koff was 0.0005 s⁻¹ and the kon was 74000 M⁻¹ s⁻¹.
Work on B11 yielded a Kd of 44 nM, a koff of 0.0042 s⁻¹ and a kon of 94000 M⁻¹ s⁻¹.
Binder B12 has a Kd of 51 nM, a koff of 0.0034 s⁻¹ and a kon of 67000 M⁻¹ s⁻¹.
B13 gave a Kd of 6 nM, a koff of 0.00044 s⁻¹ and a kon of 74000 M⁻¹ s⁻¹.
B14 gave a Kd of 27 nM, a koff of 0.0016 s⁻¹ and a kon of 61000 M⁻¹ s⁻¹.
B15 showed a Kd of 8.2 nM, a koff of 0.0006 s⁻¹ and a kon of 74000 M⁻¹ s⁻¹.
Work on B16 yielded a Kd of 5.7 nM, a koff of 0.00058 s⁻¹ and a kon of 100000 M⁻¹ s⁻¹.
Work on B17 yielded a Kd of 13 nM, a koff of 0.00085 s⁻¹ and a kon of 67000 M⁻¹ s⁻¹.

These binders were tested against T1, GPC3 (assay: SPR as in Example 1; reference not named (VH2.M6 or mouse scFv)).
Source text: as §1
To further improve the humanization of anti-GPC3 scFvs, additional amino acid residues in VH1 and VL1 were mutated to their human germline counterparts. […] The binding affinity of these humanized variants were again determined using SPR as described in Example 1 (Table 5).
With B17 the “fold drop in binding affinity” value was < 4 fold.

Reference: patent US20250297029A1 (NANJING LEGEND BIOTECH, published 2025)
